{
  "source": "paper PMC10794152",
  "key": {"[1]": {"target": "basigin ectodomain (human)", "experiment": "MST; Alexa Fluor 488-labelled BSG^ecto held at 0.25 µM; PfRH5 or PfRCR titrated 8 µM to 3.91 nM; 20 mM Tris pH 8.0, 200 mM NaCl, 1 mg/ml salmon sperm DNA, 0.01% Tween-20; 25 °C"}, "[2]": {"target": "full-length human basigin (human)", "experiment": "MST; Alexa Fluor 488-labelled full-length basigin held at 0.1 µM; PfRH5 or PfRCR titrated 2 µM to 0.12 nM; 20 mM Tris pH 8.0, 200 mM NaCl, 1 mg/ml salmon sperm DNA, 0.02% DDM; 25 °C"}},
  "data": [
    {"substance": "PfRH5 (natural protein)", "values": [
      {"measurement": "Kd", "setting": "[1]", "value": 190, "unit": "nM"},
      {"measurement": "Kd", "setting": "[2]", "value": 120, "unit": "nM"}
    ]}
  ]
}
